PMC6125642
pKd: −log10 of the molar value.

Target: FITC-labeled aP-C18 peptide (not stated (P. horikoshii and P. furiosus aP1 were both used))
Experiment: fluorescence polarisation

| Substance | pKd |
| --- | --- |
| aABCE1 A223S (enzyme) | 4.33 |
| aABCE1 I170S (enzyme) | 4.17 |
| aABCE1 R227A (enzyme) | 4.51 |
| aABCE1 V174S (enzyme) | 4.08 |
| aABCE1 V219S (enzyme) | 5.20 |
| aABCE1-ΔN74 (domain or fragment) | 5.36 |
